Assay results reported in patent US20250171534A1 (D2M BIOTHERAPEUTICS, published 2025).

Key:
[1] = target: T1, human LILRB1 expressed on cells (human, UniProt Q8NHL6 24-650); assay: flow cytometry, CHO-LILRB1 cells; blocked ligand: APC HLA-G trimer tetramer
T1 construct: In 293T cells it was expressed from pCMV3-LILRB1-GFP; also called CHO-LILRB1; Jurkat-LILRB1

[2] = target: T2, LILRB2-ECD-HIS (SinoBiological Cat #: 14132-H02H) (human, UniProt Q8N423 22-460); assay: BLI (Gator), RB2-ECD-his
T2 construct: Bought protein; also called monomeric antigen LILRB2-ECD-HIS; not shown: His tag
T2 sequence (Q8N423 other isoform, or with tags, fused parts or gaps H02H H02H): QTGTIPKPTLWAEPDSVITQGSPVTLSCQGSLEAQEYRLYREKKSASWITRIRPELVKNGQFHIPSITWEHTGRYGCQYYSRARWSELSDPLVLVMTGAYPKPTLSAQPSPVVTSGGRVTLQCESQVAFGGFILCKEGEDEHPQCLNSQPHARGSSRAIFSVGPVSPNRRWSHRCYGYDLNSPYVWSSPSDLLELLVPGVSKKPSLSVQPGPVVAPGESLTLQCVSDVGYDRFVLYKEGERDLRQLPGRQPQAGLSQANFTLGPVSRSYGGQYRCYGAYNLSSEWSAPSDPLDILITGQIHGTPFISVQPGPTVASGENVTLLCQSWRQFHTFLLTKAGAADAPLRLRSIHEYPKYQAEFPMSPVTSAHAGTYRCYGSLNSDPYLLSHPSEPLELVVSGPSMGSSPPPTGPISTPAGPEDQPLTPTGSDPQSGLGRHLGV

[3] = target: T3, LILRA1 expressed on cells (human, UniProt O75019 17-489); assay: flow cytometry on CHO-LILRA1 cells, non-linear fit of the curves of FIG. 26E
T3 construct: whole, on cells; GFP-tagged; also called human LILRA1; CHO-LILRA1
T3 sequence (O75019 17-489): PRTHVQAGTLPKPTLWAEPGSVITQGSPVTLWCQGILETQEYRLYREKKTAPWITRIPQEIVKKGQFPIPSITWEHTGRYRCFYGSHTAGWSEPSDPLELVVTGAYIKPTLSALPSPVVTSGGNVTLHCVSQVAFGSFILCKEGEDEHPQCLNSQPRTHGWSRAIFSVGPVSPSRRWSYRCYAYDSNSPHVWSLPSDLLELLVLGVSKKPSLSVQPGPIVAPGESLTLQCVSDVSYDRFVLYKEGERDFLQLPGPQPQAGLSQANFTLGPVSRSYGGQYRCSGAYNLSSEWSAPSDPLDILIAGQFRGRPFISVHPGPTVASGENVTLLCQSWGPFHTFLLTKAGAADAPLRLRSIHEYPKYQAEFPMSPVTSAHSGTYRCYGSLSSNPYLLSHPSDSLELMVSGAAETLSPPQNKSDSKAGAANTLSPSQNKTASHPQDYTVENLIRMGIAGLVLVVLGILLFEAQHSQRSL

[4] = target: T4, LILRB5 expressed on 293T cells (UniProt O75023 24-590, limits assumed); assay: flow cytometry on 293T cells transiently expressing LILRB5, APC anti-human Fc; gMFI as fold to IgG staining
T4 construct: whole, on cells; GFP-tagged, transient
T4 sequence (O75023 24-590 limits assumed): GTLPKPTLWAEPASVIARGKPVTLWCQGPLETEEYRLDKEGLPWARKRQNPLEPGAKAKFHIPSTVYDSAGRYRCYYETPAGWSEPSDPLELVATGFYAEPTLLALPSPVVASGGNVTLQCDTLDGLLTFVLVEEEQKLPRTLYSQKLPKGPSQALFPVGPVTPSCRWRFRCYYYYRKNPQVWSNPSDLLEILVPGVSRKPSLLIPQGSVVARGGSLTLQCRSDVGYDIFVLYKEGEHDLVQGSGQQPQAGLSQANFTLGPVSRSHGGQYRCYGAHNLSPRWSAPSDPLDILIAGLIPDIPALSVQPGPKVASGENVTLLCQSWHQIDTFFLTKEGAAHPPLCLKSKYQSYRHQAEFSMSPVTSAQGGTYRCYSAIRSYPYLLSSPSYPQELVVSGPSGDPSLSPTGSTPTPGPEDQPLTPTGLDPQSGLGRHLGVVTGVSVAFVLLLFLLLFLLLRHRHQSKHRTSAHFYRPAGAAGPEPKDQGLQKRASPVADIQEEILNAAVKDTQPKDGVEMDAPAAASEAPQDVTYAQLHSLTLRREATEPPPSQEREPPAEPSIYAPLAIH

[5] = target: T5, LILRB3 expressed on cells (human, UniProt O75022 24-631); assay: flow cytometry on 293T cells transiently expressing LILRB3, APC anti-human Fc; gMFI as fold to IgG staining
T5 construct: whole, on cells; Expressed with a GFP tag from the bought plasmid; also called human LILRB3; CHO-LILRB3

[6] = target: T6, human LILRB2 expressed on cells (human, UniProt Q8N423 22-597); assay: flow cytometry, Jurkat-LILRB2 cells
T6 construct: In 293T cells it was expressed from pCMV3-LILRB2-GFP; also called CHO-LILRB2; Jurkat-LILRB2
T6 sequence (Q8N423 other isoform, or with tags, fused parts or gaps limits assumed): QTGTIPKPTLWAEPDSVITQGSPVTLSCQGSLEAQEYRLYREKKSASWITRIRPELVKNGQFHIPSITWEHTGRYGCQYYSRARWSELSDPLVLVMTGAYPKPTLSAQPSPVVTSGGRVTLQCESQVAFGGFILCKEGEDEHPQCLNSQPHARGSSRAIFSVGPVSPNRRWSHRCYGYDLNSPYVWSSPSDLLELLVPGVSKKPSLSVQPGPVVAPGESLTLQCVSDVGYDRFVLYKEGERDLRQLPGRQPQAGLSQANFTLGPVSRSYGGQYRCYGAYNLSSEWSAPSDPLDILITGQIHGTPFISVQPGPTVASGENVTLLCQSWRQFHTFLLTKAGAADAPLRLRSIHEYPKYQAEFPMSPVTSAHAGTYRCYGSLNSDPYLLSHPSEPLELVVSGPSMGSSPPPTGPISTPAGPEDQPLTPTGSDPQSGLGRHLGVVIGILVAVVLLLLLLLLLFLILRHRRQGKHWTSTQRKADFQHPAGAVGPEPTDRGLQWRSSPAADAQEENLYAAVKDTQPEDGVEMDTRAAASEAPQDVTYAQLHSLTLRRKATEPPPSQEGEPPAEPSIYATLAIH

[7] = target: T6, human LILRB2 expressed on cells; assay: flow cytometry on CHO-LILRB2 cells, non-linear fit of the curves of FIG. 26B
[8] = target: T7, LILRB4 expressed on 293T cells (UniProt Q8NHJ6 22-448, limits assumed); assay: flow cytometry on 293T cells transiently expressing LILRB4, APC anti-human Fc; gMFI as fold to IgG staining
T7 construct: whole, on cells; GFP-tagged, transient

[9] = target: T1, human LILRB1 expressed on cells; assay: flow cytometry, Jurkat-LILRB1 cells
[10] = target: T3, LILRA1 expressed on cells; assay: flow cytometry on CHO-LILRA1 cells (CHO-RA1), titrated antibody, labelled anti-human Fc, gMFI
[11] = target: T1, human LILRB1 expressed on cells; assay: flow cytometry, CHO-LILRB1 cells
[12] = target: T8, LILRA3 expressed on 293T cells (UniProt Q8N6C8 24-439, limits assumed); assay: flow cytometry on 293T cells transiently expressing LILRA3, APC anti-human Fc; gMFI as fold to IgG staining
T8 construct: whole, on cells; GFP-tagged, transient
T8 sequence (Q8N6C8 24-439 limits assumed): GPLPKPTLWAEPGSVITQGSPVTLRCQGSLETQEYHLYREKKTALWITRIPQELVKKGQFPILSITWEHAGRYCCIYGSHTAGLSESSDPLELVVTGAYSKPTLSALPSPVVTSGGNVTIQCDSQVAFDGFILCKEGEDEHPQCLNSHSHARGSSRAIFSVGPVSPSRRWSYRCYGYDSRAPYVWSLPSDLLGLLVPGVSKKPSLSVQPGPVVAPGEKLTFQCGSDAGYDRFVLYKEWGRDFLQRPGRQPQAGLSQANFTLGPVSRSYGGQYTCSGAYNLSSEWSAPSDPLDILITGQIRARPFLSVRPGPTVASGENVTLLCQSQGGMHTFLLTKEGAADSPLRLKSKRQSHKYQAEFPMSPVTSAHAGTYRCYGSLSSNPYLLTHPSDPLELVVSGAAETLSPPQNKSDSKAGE

[13] = target: T6, human LILRB2 expressed on cells; assay: flow cytometry, Jurkat-LILRB2 cells; blocked ligand: APC HLA-G monomer tetramer
[14] = target: T1, human LILRB1 expressed on cells; assay: flow cytometry, CHO-LILRB1 cells; remark: listed apart in the source
[15] = target: T1, human LILRB1 expressed on cells; assay: flow cytometry on CHO-LILRB1 cells, non-linear fit of the curves of FIG. 26A
[16] = target: T9, LILRA4 expressed on 293T cells (UniProt P59901 24-499, limits assumed); assay: flow cytometry on 293T cells transiently expressing LILRA4, APC anti-human Fc; gMFI as fold to IgG staining
T9 construct: whole, on cells; GFP-tagged, transient

[17] = target: T6, human LILRB2 expressed on cells; assay: flow cytometry on CHO-LILRB2 cells (CHO-RB2), titrated antibody, labelled anti-human Fc, gMFI
[18] = target: T10, LILRB1-ECD-HIS (SinoBiological Cat #: 16014-H02H) (human, UniProt Q8NHL6 24-461); assay: SPR (Carterra), LILRB1-ECD-his
T10 construct: Bought protein; also called monomeric antigen LILRB1-ECD-HIS; not shown: His tag
T10 sequence (Q8NHL6 other isoform, or with tags, fused parts or gaps H02H H02H): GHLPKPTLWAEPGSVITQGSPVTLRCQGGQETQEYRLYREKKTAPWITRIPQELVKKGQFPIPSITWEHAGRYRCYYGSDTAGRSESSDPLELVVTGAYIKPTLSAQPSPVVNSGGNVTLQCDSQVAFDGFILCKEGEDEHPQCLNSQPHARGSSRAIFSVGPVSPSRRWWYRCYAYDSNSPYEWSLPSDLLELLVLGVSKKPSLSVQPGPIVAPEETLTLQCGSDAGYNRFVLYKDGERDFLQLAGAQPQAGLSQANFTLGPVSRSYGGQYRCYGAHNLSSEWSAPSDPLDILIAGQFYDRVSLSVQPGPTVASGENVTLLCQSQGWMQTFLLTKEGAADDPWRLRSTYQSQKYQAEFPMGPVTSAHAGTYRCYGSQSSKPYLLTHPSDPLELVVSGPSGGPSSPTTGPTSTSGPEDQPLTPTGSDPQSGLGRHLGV

[19] = target: T2, LILRB2-ECD-HIS (SinoBiological Cat #: …); assay: SPR (Carterra), LILRB2-ECD-his
[20] = target: T10, LILRB1-ECD-HIS (SinoBiological Cat #: …); assay: SPR (Carterra LSA), antibody captured, antigen injected;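 also: kd obtained from kinetic analysis of antibody binding to the antigen, with association and dissociation phases fitted in the instrument software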
[21] = target: T2, LILRB2-ECD-HIS (SinoBiological Cat #: …); assay: as above
[22] = target: T6, human LILRB2 expressed on cells; assay: flow cytometry, CHO-LILRB2 cells
[23] = target: T1, human LILRB1 expressed on cells; assay: flow cytometry, Jurkat-LILRB1 cells; blocked ligand: APC HLA-G trimer tetramer
[24] = target: T11, LILRA2 expressed on 293T cells (UniProt Q8N149 24-483, limits assumed); assay: flow cytometry on 293T cells transiently expressing LILRA2, APC anti-human Fc; gMFI as fold to IgG staining
T11 construct: whole, on cells; GFP-tagged, transient
T11 sequence (Q8N149 24-483 limits assumed): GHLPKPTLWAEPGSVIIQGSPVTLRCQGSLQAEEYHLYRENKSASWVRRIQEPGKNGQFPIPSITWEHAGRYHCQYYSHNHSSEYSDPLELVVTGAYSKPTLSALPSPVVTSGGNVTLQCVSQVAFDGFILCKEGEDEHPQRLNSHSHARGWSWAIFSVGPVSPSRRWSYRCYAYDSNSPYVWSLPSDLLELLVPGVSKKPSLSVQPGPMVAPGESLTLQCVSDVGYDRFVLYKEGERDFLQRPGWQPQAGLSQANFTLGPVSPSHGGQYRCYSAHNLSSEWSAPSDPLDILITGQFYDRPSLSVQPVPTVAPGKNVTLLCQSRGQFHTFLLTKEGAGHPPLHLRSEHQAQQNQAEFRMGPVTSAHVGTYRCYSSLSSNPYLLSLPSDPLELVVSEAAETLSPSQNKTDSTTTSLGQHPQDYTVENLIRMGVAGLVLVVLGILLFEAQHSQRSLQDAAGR

[25] = target: T1, human LILRB1 expressed on cells; assay: flow cytometry on CHO-LILRB1 cells (CHO-RB1), titrated antibody, labelled anti-human Fc, gMFI
[26] = target: T12, LILRA6 expressed on cells (human, UniProt Q6PI73 24-481); assay: flow cytometry on 293T cells transiently expressing LILRA6, APC anti-human Fc; gMFI as fold to IgG staining
T12 construct: whole, on cells; GFP-tagged; also called human LILRA6; CHO-LILRA6
T12 sequence (Q6PI73 24-481): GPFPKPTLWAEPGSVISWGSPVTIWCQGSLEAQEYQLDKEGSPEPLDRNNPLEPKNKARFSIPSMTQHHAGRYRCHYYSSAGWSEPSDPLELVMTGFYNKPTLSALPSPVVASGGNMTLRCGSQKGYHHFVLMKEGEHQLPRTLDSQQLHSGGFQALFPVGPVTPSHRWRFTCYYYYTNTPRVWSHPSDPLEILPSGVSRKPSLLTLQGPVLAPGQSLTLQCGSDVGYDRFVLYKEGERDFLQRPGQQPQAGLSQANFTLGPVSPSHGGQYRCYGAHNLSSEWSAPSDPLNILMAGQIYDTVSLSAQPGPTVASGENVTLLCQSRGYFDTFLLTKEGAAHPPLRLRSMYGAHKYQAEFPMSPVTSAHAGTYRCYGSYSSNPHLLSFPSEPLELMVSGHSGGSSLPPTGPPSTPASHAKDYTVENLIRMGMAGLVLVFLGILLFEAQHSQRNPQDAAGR

[27] = target: T13, LILRA5 expressed on 293T cells (UniProt A6NI73 42-299, limits assumed); assay: flow cytometry on 293T cells transiently expressing LILRA5, antibody 5 µg/mL, APC anti-human Fc; gMFI as fold to IgG staining
T13 construct: whole, on cells; GFP-tagged, transient

[28] = target: T10, LILRB1-ECD-HIS (SinoBiological Cat #: …); assay: BLI (Gator), RB1-ECD-his
[29] = target: T1, human LILRB1 expressed on cells; assay: flow cytometry, CHO-LILRB1 cells; remark: listed apart in the source
[30] = target: T10, LILRB1-ECD-HIS (SinoBiological Cat #: …); assay: BLI epitope binning (Gator), monomeric antigen
[31] = target: T2, LILRB2-ECD-HIS (SinoBiological Cat #: …); assay: BLI epitope binning (Gator), monomeric antigen

T1 sequence (Q8NHL6 other isoform, or with tags, fused parts or gaps limits assumed): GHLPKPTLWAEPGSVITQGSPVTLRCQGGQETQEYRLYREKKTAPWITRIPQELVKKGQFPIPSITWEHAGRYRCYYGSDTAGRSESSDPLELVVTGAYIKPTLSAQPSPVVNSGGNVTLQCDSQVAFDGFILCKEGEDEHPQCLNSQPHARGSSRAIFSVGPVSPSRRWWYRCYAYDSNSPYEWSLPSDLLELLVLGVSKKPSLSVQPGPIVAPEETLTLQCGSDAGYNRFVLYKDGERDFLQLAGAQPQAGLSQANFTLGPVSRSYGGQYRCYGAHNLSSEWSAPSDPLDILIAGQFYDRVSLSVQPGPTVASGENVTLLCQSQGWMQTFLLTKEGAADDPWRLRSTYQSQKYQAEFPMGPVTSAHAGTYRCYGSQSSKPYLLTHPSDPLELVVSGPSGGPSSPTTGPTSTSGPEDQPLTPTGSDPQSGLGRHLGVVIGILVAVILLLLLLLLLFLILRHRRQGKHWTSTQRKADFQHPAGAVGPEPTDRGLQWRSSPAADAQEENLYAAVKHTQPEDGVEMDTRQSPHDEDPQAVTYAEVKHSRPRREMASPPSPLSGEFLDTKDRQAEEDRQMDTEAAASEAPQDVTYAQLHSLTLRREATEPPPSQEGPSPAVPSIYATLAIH

B1: D2M002-026 (antibody, V domains shown)
VH: QVQLQQPGAELMKPGASVKISCKATGYTFSSYWIEWVKQRPGHGLEWIGEILPGDGSTNYNAKFKGQATFTADTSSNTAYMQFSSLTSEDSAVYYCARSGAGGYDSGAFAYWGQGTLVTVSS
VL: DIVLTQSPASLAVSLGQRATISCRASESVDTYGNSFMHWYQQKPGQPPKLLVYRTSNLESGIPARFSGSGSGTDFTLTINPVEADDVATYYCQQSNEDPWTFGGGTKLEIK
notes: Hit; also called clone #26
[1]
  IC50: 0.197 µg/mL
[2]
  Kd: 103 pM
[3]
  EC50: 0.0877 µg/mL
  MaxMFI: 28100
[4]
  binding result: no binding (tested: 5 µg/mL)
[5]
  binding result: no binding (tested: 5 µg/mL)
[6]
  EC50: 0.106 µg/mL
[7]
  EC50: 0.18 µg/mL
  MaxMFI: 31800
[8]
  binding result: no binding (tested: 5 µg/mL)
[9]
  EC50: 1.94 µg/mL
[10]
  EC50 (read off the curve): ~0.09 µg/mL
[11]
  EC50: 0.818 µg/mL
  gMFI (max): 43200
[12]
  binding result: no binding (tested: 5 µg/mL)
[13]
  IC50: 0.023 µg/mL
[14]
  EC50: 1.02 µg/mL
[15]
  EC50: 0.4 µg/mL
  MaxMFI: 113000
[16]
  binding result: no binding (tested: 5 µg/mL)
[17]
  EC50 (read off the curve): ~0.2 µg/mL
[18]
  Kd: 382 pM
  koff: 2.79e-05 s⁻¹
  kon: 73100 M⁻¹ s⁻¹
[19]
  Kd: 60.8 pM
  koff: 4.53e-05 s⁻¹
  kon: 745000 M⁻¹ s⁻¹
[20]
  Kd: 737 pM
[21]
  Kd: 28.6 pM
[22]
  EC50: 2.63 µg/mL
  gMFI (max): 35500
[23]
  IC50: 0.34 µg/mL
[24]
  binding result: no binding (tested: 5 µg/mL)
[25]
  EC50 (read off the curve): ~0.4 µg/mL
[26]
  binding result: no binding (tested: 5 µg/mL)
[27]
  binding result: binds
[28]
  Kd: 689 pM

B2: #1 (antibody, human IgG1, V domains shown)
VH: EVQLQQSGPELVKPGASVKMSCKASGYTFTRYVMHWVKQKPGQGLEWIGYINPNNDGTKYNEKFKGKVTLTSDKSSSTAYMELSSLTSEDSAVYYCARGDLEILPYYDHARNAMDYWGQGTSVTVSS
VL: DIVMTQSPASQSASLGESVIITCRASGNIHNYLAWYQQKQGKSPQLLVYNAKTLADGVPSRFSGSGSGTQYSLKINSLQPEDFGTYYCQHFWSSPPTFGGGTKLELK
notes: also called D2M002-001
[29]
  EC50 (read off the curve): ~0.09 µg/mL
[11]
  EC50: 0.093 µg/mL
  gMFI (max): 26800
[20]
  Kd: 14700 pM
[21]
  Kd: 2080 pM
[22]
  EC50: 0.033 µg/mL
  gMFI (max): 16300

B3: Anti-LILRB1 antibody 15G8 (antibody, human IgG4 S228P, kappa)
heavy: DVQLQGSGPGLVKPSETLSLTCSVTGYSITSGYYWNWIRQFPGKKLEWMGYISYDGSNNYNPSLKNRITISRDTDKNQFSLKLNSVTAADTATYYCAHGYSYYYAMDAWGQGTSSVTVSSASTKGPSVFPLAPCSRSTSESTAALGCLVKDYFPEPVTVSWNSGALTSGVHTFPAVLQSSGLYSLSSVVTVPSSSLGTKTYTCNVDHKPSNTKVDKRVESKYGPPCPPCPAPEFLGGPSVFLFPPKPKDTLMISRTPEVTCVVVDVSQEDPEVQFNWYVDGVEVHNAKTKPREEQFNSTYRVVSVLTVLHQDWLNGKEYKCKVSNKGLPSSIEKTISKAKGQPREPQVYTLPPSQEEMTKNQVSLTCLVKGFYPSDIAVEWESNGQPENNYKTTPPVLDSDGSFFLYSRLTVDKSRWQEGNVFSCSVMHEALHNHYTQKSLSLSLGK
light: DIQMTQSPSSLSASVGDRVTITCRTSQDISNYLNWYQQKPGKAVKLLISYTSRLHSGVPSRFSGSGSGTDYTLTISSLQPEDFATYYCQQGNTLPTFGQGTKLEIKRTVAAPSVFIFPPSDEQLKSGTASVVCLLNNFYPREAKVQWKVDNALQSGNSQESVTEQDSKDSTYSLSSTLTLSKADYEKHKVYACEVTHQGLSSPVTKSFNRGEC
notes: also called BND-22
[30]
  binding result: binds

B4: Anti-LILRB2 antibody J-19.H1 (antibody, human IgG4 S228P, kappa, V domains shown)
VH: QVTLKESGPGILQPSHTLSLTCSFSGFSLNTYAMGVSWIRQPSGKGLEWLASIWWNGNKYNNPSLKSRLTVSKDTSNNQAFLKVTSVDTADTATYYCAHSRIIRFTDYVMDAWGQGASVTVSS
VL: DIQMTQSPASLSTFLGEPVTIECRASEDIYNDLAWYQQKPGKSPQLLIYNANSLHTGVPSRFSGSGSGTQYSLKINSLQSEDVASYFCQQYYDYPLTFGSGTKLEIKR
notes: also called JTX-8064
[31]
  binding result: binds

B5: Anti-LILRB1/2 antibody Hz73D1.v1 (antibody, human IgG1, kappa, N297G, V domains shown)
VH: QVQLVQSGAEVKKPGASVKVSCKASGYTFTDYYINWVRQAPGQGLEWMGNVNPNDGGTTYNQKFKGRVTMTTDTSTSTAYMELRSLRSDDTAVYYCARREIYFYGTIYYYAMDYWGQGTLVTVSS
VL: DIQLTQSPSFLSASVGDRVTITCRASESVDYYGNSFMYWYQQKPGKAPKLLIYFASNLESGVPSRFSGSGSGTEFTLTISSLQPEDFATYYCQQNNEDPWTFGGGTKVEIKR
notes: also called NGM707
[30]
  binding result: binds
[31]
  binding result: binds
